Measured values reported in article PMC3192050, “Structural Basis for Specific Binding of Human MPP8 Chromodomain to Histone H3 Methylated at Lysine 9” (PLoS ONE, 2011).

Columns and labels:
hMPP8 chromodomain = target: T1, hMPP8 chromodomain (Homo sapiens, UniProt Q99549); assay: Surface plasmon resonance (SPR) binding of histone peptides to hMPP8 chromodomain; settings: BIAcore3000, 14°C, synthetic peptide residues 19 to 33, 150 mM NaCl, 20 mM Tris, pH 8.0, 1 mM DTT, Fig. S1F right panel
T1 construct: The chromodomain of human MPP8 (residue 56–116) was inserted into a pET28a-MHL vector; His-tag (cleaved yes); made in house; host or cells: E. coli BL21 (DE3) Codon plus RIL
T1 sequence (Q99549 56-116): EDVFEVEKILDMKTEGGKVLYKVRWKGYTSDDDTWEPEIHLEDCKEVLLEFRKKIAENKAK
Procedure: The binding affinity of hMPP8 chromodomain and histone peptides were determined at 14°C using BIAcore3000 instruments. The biotinylated peptides were immobilized on a streptavidin-coated biosensor chip (SA-Chip). All experiments were carried out in the continuous-follow buffer (150 mM NaCl, 20 mM Tris, pH 8.0, 1 mM DTT). The injected protein sample was flowed for 3 min over the peptide coated SA-Chips at a follow rate of 30 ml/min and the change of response unit (RU) was recorded. Protein dissociation was monitored for 3 min by following the continuous-follow buffer at a follow rate of 30 ml/min over the SA-Chips. The KD was determined by global nonlinear regression fitting of the association and dissociation curves according to the Langmuir binding isotherm model.

[1] = system: hMpp8 chromodomain mutant, Lys100 mutated to proline; assay: Histone H3K27 peptide pulldown, hMPP8 chromodomain mutant with Lys100 mutated to proline; type: binding, human; settings: Fig. S1B
From the text: (§1) It is noteworthy that the sequence motif of H3K27 is similar to H3K9 tail (KAARK^27S versus QTARK^9S). However, methylated histone H3K27 cannot interact with hMPP8 chromodomain. To explain why hMPP8 specifically recognizes methylated H3K9, we built a mutant model that hMPP8 binds to methylated H3K27. We mutated residues Gln5 and Thr6 of the QTARK^9S motif to KA to generate a motif of KAARK^9S, which shared the same amino sequence around the K27 site in histone H3. […] To further validate the hypothesis, hMpp8 chromodomain mutants were designed to rescue the binding ability to H3K27me3. Based on our structures, residues Lys100, Glu101 and Val102 were mutated to proline, respectively, to generate enough space where the side chain of Lys5 can insert.
(§2) Supplementary file pone.0025104.s001.tif: Figure S1 hMPP8 specifically recognizes methylated H3K9 rather than H3K27. (A) A mutant structure model for hMPP8 binds to KAARK(me3)S histone motif. Gln5 and Thr6 of the QTARK^9S motif were mutated to KA in this model. (B) Histone H3K27 peptide pulldowns with proteins of wild type hMpp8 chromodomain and indicated mutants, respectively. […] Molecular mass was measured by size exclusion. (F) Binding affinity of hMPP8 chromodomain to H3K4me3 (left panel, measured by ITC method) and H3K27me3 peptide (right panel, measured by SPR method). […]

[2] = system: hMpp8 chromodomain mutant, Glu101 mutated to proline; assay: Histone H3K27 peptide pulldown, hMPP8 chromodomain mutant with Glu101 mutated to proline; type: binding, human; settings: Fig. S1B
From the text: as §1, §2

[3] = target: human MPP8 (M-phase phosphoprotein 8) chromodomain (human) (UniProt Q99549); assay: SEC; size exclusion of hMPP8 chromodomain in the presence or in the absence of H3K9me3 peptide
[4] = target: human MPP8 (M-phase phosphoprotein 8) chromodomain (human) (UniProt Q99549); assay: SEC; gel filtration of hMPP8 chromodomain; column buffer 20 mM Tris (pH 8.0), 400 mM NaCl
[5] = Size exclusion chromatography, oligomerization state in solution; type: physicochemical; settings: 20 mM Tris (pH 8.0), 400 mM NaCl, Fig. 1D
From the text: Figure 1 Overall structure of hMPP8 chromodomain. (A) Sequence alignment of chromodomains of human MPP8, Drosophila HP1 and Drosophila Polycomb. Secondary structural elements (arrows for β strands and rectangles for α helices) are indicated, η represent 3_10 helix. Methylated H3K9 binding residues are marked by stars. Residues involved in dimerization of human Mpp8 and Drosophila Polycomb are marked by diamonds and triangles, respectively. The alignment was created with Espript (http://espript.ibcp.fr/Espript/Espript). (B) Cartoon representation of the crystal structure of hMPP8 chromodomain. The two subunits of the homodimer are colored in cyan and green, respectively, and the secondary structure regions in both proteins are marked. (C) Interactions between the two subunits of the hMPP8 chromodomain homodimer. The dimer interface is formed by strand β2 through an antiparallel arrangement. (D) Gel filtration of hMPP8 chromodomain (left panel). The column buffer was 20 mM Tris (pH 8.0), 400 mM NaCl. The molecular weight of hMPP8 chromodomain monomer was measured using tricine-SDS-PAGE (right panel). TEXT PRINTED IN THE PICTURE: (D) no label printed: 100.09 ml (13.6 kDa)
To determine the oligomerization state of hMPP8 chromodomain in solution, size exclusion experiment was performed. […] The molecular weight of hMPP8 chromodomain monomer is about 8.0 kD. […]

Molecule: H3K27me3: synthetic H3K27me3 (residues 19 to 33) peptide (QLATKAARKSAPATG; K27 trimethylation; UniProt P68431 20-34, looked up, fragment)
- binding (SPR) (hMPP8 chromodomain): does not exhibit detectable binding
- binding in peptide pulldown [1]: able to bind H3K27me3 peptide weakly
- binding in peptide pulldown [2]: able to bind H3K27me3 peptide weakly

Molecule: human MPP8 (M-phase phosphoprotein 8) chromodomain (from UniProt Q99549 56-116) (domain or fragment)
- stoichiometry N [3]: 2
- stoichiometry N [4]: 2

B1: hMPP8 chromodomain: recombinant chromodomain of human MPP8 (residue 56–116), expressed in BL21 (DE3) Codon plus RIL (protein, UniProt Q99549 56-116, looked up, fragment)
chain: EDVFEVEKILDMKTEGGKVLYKVRWKGYTSDDDTWEPEIHLEDCKEVLLEFRKKIAENKAK
modifications: chromodomain
notes: recombinant chromodomain of human MPP8 (residue 56–116), expressed in BL21 (DE3) Codon plus RIL
- oligomerization state in solution ([5]; free form): homodimer
- apparent molecular weight in solution ([5]; monomer about 8.0 kD): 13.6 kD
